# Patent publication US20230002480A1
# Experiments:
# Test in all cases: cell-based or functional assay
# [1] = target: HIV-1 Env of pseudovirus ZM247v1(Rev-) (HIV-1)
# [2] = target: HIV-1 Env of pseudovirus Du422.1 (HIV-1)
# [3] = target: HIV-1 Env of pseudovirus CNE53 (HIV-1)
# [4] = target: HIV-1 Env of pseudovirus Q769.d22 (HIV-1)
# [5] = target: HIV-1 Env of pseudovirus 249M B10 (HIV-1)
# [6] = target: HIV-1 Env of pseudovirus T250-4 (HIV-1)
# [7] = target: HIV-1 Env of pseudovirus PVO.4 (HIV-1)
# [8] = target: HIV-1 Env of pseudovirus CNE17 (HIV-1)
# [9] = target: HIV-1 Env of pseudovirus 1056_10_TA11_1826 (HIV-1)
# [10] = target: HIV-1 Env of pseudovirus 6535.3 (HIV-1)
# [11] = target: HIV-1 Env of pseudovirus T257-31 (HIV-1)
# [12] = target: HIV-1 Env of pseudovirus Q842.d12 (HIV-1)
# [13] = target: HIV-1 Env of pseudovirus 928-28 (HIV-1)
# [14] = target: HIV-1 Env of pseudovirus Q461.e2 (HIV-1)
# [15] = target: HIV-1 Env of pseudovirus TRJO4551.58 (HIV-1)
# [16] = target: HIV-1 Env of pseudovirus 191084 B7-19 (HIV-1)
# [17] = target: HIV-1 Env of pseudovirus 1394C9G1(Rev-) (HIV-1)
# [18] = target: HIV-1 Env of pseudovirus 191955_A11 (HIV-1)
# [19] = target: HIV-1 Env of pseudovirus CAP45.2.00.G3 (HIV-1)
# [20] = target: HIV-1 Env of pseudovirus Du156.12 (HIV-1)
# [21] = target: HIV-1 Env of pseudovirus 6240_08_TA5_4622 (HIV-1)
# [22] = target: HIV-1 Env of pseudovirus 9004SS_A3_4 (HIV-1)
# [23] = target: HIV-1 Env of pseudovirus HIV-001428-2.42 (HIV-1)
# [24] = target: HIV-1 Env of pseudovirus 263-8 (HIV-1)
# [25] = target: HIV-1 Env of pseudovirus HIV-0013095-2.11 (HIV-1)
# [26] = target: HIV-1 Env of pseudovirus Ce2060_G9 (HIV-1)
# [27] = target: HIV-1 Env of pseudovirus Q23.17 (HIV-1)
substance,measurement,setting,value
PG9 (antibody),"IC50, titer in TZM.bl cells",[1],0.112 mg/L
same,"IC80, titer in TZM.bl cells",[1],0.323 mg/L
same,"IC50, titer in TZM.bl cells",[2],0.614 mg/L
same,"IC80, titer in TZM.bl cells",[2],10.4 mg/L
same,"IC50, titer in TZM.bl cells",[3],0.131 mg/L
same,"IC80, titer in TZM.bl cells",[3],0.6 mg/L
same,"IC50, titer in TZM.bl cells",[4],0.025 mg/L
same,"IC80, titer in TZM.bl cells",[4],0.068 mg/L
same,"IC50, titer in TZM.bl cells",[5],0.095 mg/L
same,"IC80, titer in TZM.bl cells",[5],0.29 mg/L
same,"IC50, titer in TZM.bl cells",[6],0.005 mg/L
same,"IC80, titer in TZM.bl cells",[6],0.014 mg/L
same,"IC50, titer in TZM.bl cells",[7],10.6 mg/L
same,"IC80, titer in TZM.bl cells",[7],> 50 mg/L
same,"IC50, titer in TZM.bl cells",[8],0.21 mg/L
same,"IC80, titer in TZM.bl cells",[8],0.484 mg/L
same,"IC50, titer in TZM.bl cells",[9],6.34 mg/L
same,"IC80, titer in TZM.bl cells",[9],38.3 mg/L
same,"IC50, titer in TZM.bl cells",[10],0.176 mg/L
same,"IC80, titer in TZM.bl cells",[10],0.627 mg/L
same,"IC50, titer in TZM.bl cells",[11],0.037 mg/L
same,"IC80, titer in TZM.bl cells",[11],0.124 mg/L
same,"IC50, titer in TZM.bl cells",[12],0.023 mg/L
same,"IC80, titer in TZM.bl cells",[12],0.081 mg/L
same,"IC50, titer in TZM.bl cells",[13],0.101 mg/L
same,"IC80, titer in TZM.bl cells",[13],0.45 mg/L
same,"IC50, titer in TZM.bl cells",[14],1.48 mg/L
same,"IC80, titer in TZM.bl cells",[14],8.72 mg/L
same,"IC50, titer in TZM.bl cells",[15],0.503 mg/L
same,"IC80, titer in TZM.bl cells",[15],4.06 mg/L
same,"IC50, titer in TZM.bl cells",[16],0.043 mg/L
same,"IC80, titer in TZM.bl cells",[16],0.202 mg/L
same,"IC50, titer in TZM.bl cells",[17],0.029 mg/L
same,"IC80, titer in TZM.bl cells",[17],0.114 mg/L
same,"IC50, titer in TZM.bl cells",[18],0.053 mg/L
same,"IC80, titer in TZM.bl cells",[18],0.154 mg/L
same,"IC50, titer in TZM.bl cells",[19],0.007 mg/L
same,"IC80, titer in TZM.bl cells",[19],0.029 mg/L
same,"IC50, titer in TZM.bl cells",[20],0.026 mg/L
same,"IC80, titer in TZM.bl cells",[20],0.19 mg/L
same,"IC50, titer in TZM.bl cells",[21],1.75 mg/L
same,"IC80, titer in TZM.bl cells",[21],6.33 mg/L
same,"IC50, titer in TZM.bl cells",[22],0.088 mg/L
same,"IC80, titer in TZM.bl cells",[22],0.251 mg/L
same,"IC50, titer in TZM.bl cells",[23],0.101 mg/L
same,"IC80, titer in TZM.bl cells",[23],0.25 mg/L
same,"IC50, titer in TZM.bl cells",[24],0.293 mg/L
same,"IC80, titer in TZM.bl cells",[24],1.05 mg/L
same,"IC50, titer in TZM.bl cells",[25],0.01 mg/L
same,"IC80, titer in TZM.bl cells",[25],0.03 mg/L
same,"IC50, titer in TZM.bl cells",[26],0.045 mg/L
same,"IC80, titer in TZM.bl cells",[26],0.172 mg/L
same,"IC50, titer in TZM.bl cells",[27],0.027 mg/L
same,"IC80, titer in TZM.bl cells",[27],0.082 mg/L
10-1074 (antibody),"IC50, titer in TZM.bl cells",[1],0.042 mg/L
same,"IC80, titer in TZM.bl cells",[1],0.186 mg/L
same,"IC50, titer in TZM.bl cells",[2],0.045 mg/L
same,"IC80, titer in TZM.bl cells",[2],0.166 mg/L
same,"IC50, titer in TZM.bl cells",[3],0.039 mg/L
same,"IC80, titer in TZM.bl cells",[3],0.141 mg/L
same,"IC50, titer in TZM.bl cells",[4],> 50 mg/L
same,"IC80, titer in TZM.bl cells",[4],> 50 mg/L
same,"IC50, titer in TZM.bl cells",[5],> 50 mg/L
same,"IC80, titer in TZM.bl cells",[5],> 50 mg/L
same,"IC50, titer in TZM.bl cells",[6],< 0.001 mg/L
same,"IC80, titer in TZM.bl cells",[6],0.005 mg/L
same,"IC50, titer in TZM.bl cells",[7],0.074 mg/L
same,"IC80, titer in TZM.bl cells",[7],0.36 mg/L
same,"IC50, titer in TZM.bl cells",[8],2.69 mg/L
same,"IC80, titer in TZM.bl cells",[8],13.3 mg/L
same,"IC50, titer in TZM.bl cells",[9],0.038 mg/L
same,"IC80, titer in TZM.bl cells",[9],0.272 mg/L
same,"IC50, titer in TZM.bl cells",[10],0.014 mg/L
same,"IC80, titer in TZM.bl cells",[10],0.026 mg/L
same,"IC50, titer in TZM.bl cells",[11],> 50 mg/L
same,"IC80, titer in TZM.bl cells",[11],> 50 mg/L
same,"IC50, titer in TZM.bl cells",[12],> 50 mg/L
same,"IC80, titer in TZM.bl cells",[12],> 50 mg/L
same,"IC50, titer in TZM.bl cells",[13],0.847 mg/L
same,"IC80, titer in TZM.bl cells",[13],4.7 mg/L
same,"IC50, titer in TZM.bl cells",[14],> 50 mg/L
same,"IC80, titer in TZM.bl cells",[14],> 50 mg/L
same,"IC50, titer in TZM.bl cells",[15],0.17 mg/L
same,"IC80, titer in TZM.bl cells",[15],0.634 mg/L
same,"IC50, titer in TZM.bl cells",[16],0.032 mg/L
same,"IC80, titer in TZM.bl cells",[16],0.128 mg/L
same,"IC50, titer in TZM.bl cells",[17],0.05 mg/L
same,"IC80, titer in TZM.bl cells",[17],0.191 mg/L
same,"IC50, titer in TZM.bl cells",[18],> 50 mg/L
same,"IC80, titer in TZM.bl cells",[18],> 50 mg/L
same,"IC50, titer in TZM.bl cells",[19],> 50 mg/L
same,"IC80, titer in TZM.bl cells",[19],> 50 mg/L
same,"IC50, titer in TZM.bl cells",[20],0.015 mg/L
same,"IC80, titer in TZM.bl cells",[20],0.076 mg/L
same,"IC50, titer in TZM.bl cells",[21],0.068 mg/L
same,"IC80, titer in TZM.bl cells",[21],0.306 mg/L
same,"IC50, titer in TZM.bl cells",[22],0.011 mg/L
same,"IC80, titer in TZM.bl cells",[22],0.03 mg/L
same,"IC50, titer in TZM.bl cells",[23],0.044 mg/L
same,"IC80, titer in TZM.bl cells",[23],0.261 mg/L
same,"IC50, titer in TZM.bl cells",[24],0.666 mg/L
same,"IC80, titer in TZM.bl cells",[24],6.53 mg/L
same,"IC50, titer in TZM.bl cells",[25],> 50 mg/L
same,"IC80, titer in TZM.bl cells",[25],> 50 mg/L
same,"IC50, titer in TZM.bl cells",[26],> 50 mg/L
same,"IC80, titer in TZM.bl cells",[26],> 50 mg/L
same,"IC50, titer in TZM.bl cells",[27],0.006 mg/L
same,"IC80, titer in TZM.bl cells",[27],0.021 mg/L
